Experiments:
[1] = target: SHANK3 SPN-ARR (residues 1-348) (rat); test: ITC
[2] = target: SHANK3 SPN(R12C)-ARR mutant (rat); test: ITC

Kd [1]: 200 nM
Kd [2]: 2200 nM
Substance: Rap1b (residues 1-166) (from UniProt P61224 1-166) (natural protein)

Source: PMC5386136
